Data from article PMC5555194.
pKd: −log10 of the molar value. Values joined by “and” are separate entries in the source; they are usually repeats but may differ in a detail not shown here. Equal entries are not always repeated.

Biological target: C3b (human) (UniProt P01024)
Assay: SPR; C3b amine-coupled to a Biacore C1 chip; dilution series of CFH (from 2.5 to 0.019 uM), preincubated with or without a 2-fold molar excess of PspCN, flowed over; Biacore T200, 25 °C, 10 mM HEPES, 150 mM NaCl, 0.05% P20; 1:1 steady-state model; three experiments on different chips

Chain of C3b (human) (P01024 23-667, chain 1 of 2): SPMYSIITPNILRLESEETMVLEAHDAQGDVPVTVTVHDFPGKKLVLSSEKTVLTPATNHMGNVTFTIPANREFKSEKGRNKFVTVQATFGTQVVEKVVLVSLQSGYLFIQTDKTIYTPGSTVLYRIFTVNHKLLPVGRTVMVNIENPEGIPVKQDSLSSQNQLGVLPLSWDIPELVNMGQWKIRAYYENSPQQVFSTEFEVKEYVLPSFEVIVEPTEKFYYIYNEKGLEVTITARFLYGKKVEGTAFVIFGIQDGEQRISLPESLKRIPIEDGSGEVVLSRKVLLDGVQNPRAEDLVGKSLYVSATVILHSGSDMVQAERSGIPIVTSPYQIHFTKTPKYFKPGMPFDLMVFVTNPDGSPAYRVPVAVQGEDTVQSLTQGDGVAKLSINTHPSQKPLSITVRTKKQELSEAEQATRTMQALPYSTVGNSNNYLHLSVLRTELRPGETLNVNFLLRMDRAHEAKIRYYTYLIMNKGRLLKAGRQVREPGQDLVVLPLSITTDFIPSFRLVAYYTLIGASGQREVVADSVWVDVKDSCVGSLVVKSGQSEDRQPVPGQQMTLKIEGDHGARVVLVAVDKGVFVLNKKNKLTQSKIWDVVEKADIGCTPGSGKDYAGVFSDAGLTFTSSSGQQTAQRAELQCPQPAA
Chain of C3b (human) (P01024 749-1663, chain 2 of 2): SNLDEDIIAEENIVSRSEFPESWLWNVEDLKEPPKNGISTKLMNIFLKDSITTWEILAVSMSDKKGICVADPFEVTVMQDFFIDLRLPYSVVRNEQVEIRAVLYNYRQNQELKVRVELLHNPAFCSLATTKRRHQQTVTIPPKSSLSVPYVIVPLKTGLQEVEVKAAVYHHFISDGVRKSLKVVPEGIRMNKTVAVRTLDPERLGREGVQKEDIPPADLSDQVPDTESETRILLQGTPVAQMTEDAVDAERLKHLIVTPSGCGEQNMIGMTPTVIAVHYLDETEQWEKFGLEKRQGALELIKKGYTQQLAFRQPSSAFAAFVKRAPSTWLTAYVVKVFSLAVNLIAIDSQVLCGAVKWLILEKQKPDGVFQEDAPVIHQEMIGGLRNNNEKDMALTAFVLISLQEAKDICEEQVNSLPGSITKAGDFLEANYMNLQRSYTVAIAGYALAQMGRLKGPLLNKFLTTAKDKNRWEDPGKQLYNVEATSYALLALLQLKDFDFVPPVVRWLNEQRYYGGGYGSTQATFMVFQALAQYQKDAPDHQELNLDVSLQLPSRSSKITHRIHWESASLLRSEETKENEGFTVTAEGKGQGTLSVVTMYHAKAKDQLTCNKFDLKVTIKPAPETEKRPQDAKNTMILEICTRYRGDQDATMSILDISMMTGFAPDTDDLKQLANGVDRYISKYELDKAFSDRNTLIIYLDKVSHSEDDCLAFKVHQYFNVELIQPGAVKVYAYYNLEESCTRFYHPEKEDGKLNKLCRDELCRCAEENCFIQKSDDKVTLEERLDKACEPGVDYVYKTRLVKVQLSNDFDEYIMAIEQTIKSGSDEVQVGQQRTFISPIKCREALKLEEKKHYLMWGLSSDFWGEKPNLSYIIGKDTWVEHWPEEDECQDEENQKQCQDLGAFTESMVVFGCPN

Row | Substance | pKd
1 | R53H-CFH–PspCN complex (from UniProt P08603 19-1231; Q9KK19 37-140) | 6.00 and 6.24
2 | I62-CFH–PspCN complex (from UniProt P08603 19-1231; Q9KK19 37-140) | 6.21 and 6.30
3 | CFH purified from human plasma (plasma CFH) (from UniProt P08603 19-1231) (natural protein) | 6.48
4 | LA-CFH–PspCN complex (from UniProt P08603 19-1231; Q9KK19 37-140) | 6.15 and 6.22
